The series in a line: self-splicing fitness, log relative to wild type (ln ratio); higher = more splicing; Tetrahymena group I intron in knt gene, E. coli kanamycin selection, DiMSum; sequences stand for … in CUCUCU…GGAGGGAAAAGUUAUCAGGCAUGCACCUGGUAGCUAGUCUUUAAACCAAUAGAUUGCAUCGGUUUAAAAGGCAAGACCGUCAAAUUGCGGGAAAGGGGUCAACAGCCGUUCAGUACCAAGUCUCAGGGGAAACUUUGAGAUGGCCUUGCAAAGGGUAUGGUAAUAAGCUGACGGACAUGGUCCUAACCACGCAGCCAAGUCCUAAGUCAACAGAUCUUCUGUUGAUAUGGAUGCAGUUCACAGACUAAAUGUCGGUCGGGGAAGAUGUAUUCUUCUCAUAAGAUAUAGUCGGACCUCUCCUUAAUGGGAGCUAGCGGAUGAAGUGAUGCAACACUGGAGCCGCUGGGAACUAAUUUGUAUGCGAAAGUAUAUUGAUUAGUUUUGGAGUACUCGUGGUCG
In outline: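 DiMSum derived fitness as the error-weighted combination of fold changes across replicates, kanamycin versus no kanamycin, normalised to wild type. E. coli BL21(DE3) held the library, which randomised all eight P1ex-region intron nucleotides within the knt kanamycin-resistance gene on pET-22b(+). Six replicate transformations grew overnight at 37°C or 30°C on LB agar with or without 25 μg/mL kanamycin, also containing 100 μg/mL carbenicillin, 50 μM IPTG and 0.2% rhamnose, and pooled colonies were amplicon-sequenced on an Illumina HiSeq 2500.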

± gives the uncertainty stated by the source.

On to GCAUAGCAAUAUUACGGAAG, for which the “self-splicing fitness (ln)” value is, setting by setting: (30 °C) -3.8 ± 0.34; (37 °C) -2.09 ± 0.37.

Consider CCUAAGCAAUAUUACGUUGG, for which the “self-splicing fitness (ln)” value was -3.45 ± 0.27 (30 °C) and -2.96 ± 0.24 (37 °C). For CUGGAGCAAUAUUACGACUA the same measures were -1.37 ± 0.28 and -1.38 ± 0.31. For ACUCAGCAAUAUUACGCCUC the same measures were -0.758 ± 0.095 and -1.13 ± 0.13.

As for AUUGAGCAAUAUUACGCCCG, the “self-splicing fitness (ln)” value (30 °C) was -3.02 ± 0.47. With CGUCAGCAAUAUUACGCGUG, the “self-splicing fitness (ln)” value (30 °C) is -0.575 ± 0.054 and the “self-splicing fitness (ln)” value (37 °C) is -0.39 ± 0.066. For GGUCAGCAAUAUUACGCAGC the same measures were -1.76 ± 0.14 and -0.838 ± 0.13.

As for UAGGAGCAAUAUUACGCCAA, the “self-splicing fitness (ln)” value is -3.23 ± 0.4 (30 °C) and -2.13 ± 0.42 (37 °C). For GUGCAGCAAUAUUACGAACG the same measures were -2.4 ± 0.2 and -0.213 ± 0.14. The matching figures for GCUCAGCAAUAUUACGAUGU: 0.0549 ± 0.065 and -0.345 ± 0.077. With UCGAAGCAAUAUUACGUCAA, the “self-splicing fitness (ln)” value is -1.52 ± 0.11 (30 °C) and -1.15 ± 0.1 (37 °C). For AGGGAGCAAUAUUACGAGCA the same measures were -3.26 ± 0.25 and -2.64 ± 0.21. On to GACAAGCAAUAUUACGGAUG, for which the “self-splicing fitness (ln)” value was -2.92 ± 0.11 (30 °C) and -1.75 ± 0.12 (37 °C). For the sequence ACCGAGCAAUAUUACGCCAA, the “self-splicing fitness (ln)” value (37 °C) is -2.01 ± 0.3. Take CCAUAGCAAUAUUACGCACC: the “self-splicing fitness (ln)” value (30 °C) is -1 ± 0.34. In the case of CCCGAGCAAUAUUACGCGUU, the “self-splicing fitness (ln)” value runs as follows: (30 °C) -4.43 ± 0.3; (37 °C) -2.22 ± 0.28.

Regarding GUCUAGCAAUAUUACGGGCG, the “self-splicing fitness (ln)” value is -1.66 ± 0.28 (30 °C) and -0.341 ± 0.17 (37 °C). As for GGAAAGCAAUAUUACGACCG, the “self-splicing fitness (ln)” value was -0.761 ± 0.12 (30 °C) and -0.184 ± 0.17 (37 °C). Consider GCAGAGCAAUAUUACGUAGG, for which the “self-splicing fitness (ln)” value is, setting by setting: (30 °C) -2.17 ± 0.11; (37 °C) -1.7 ± 0.14. The matching figures for GAGGAGCAAUAUUACGUCCG: -2.52 ± 0.24 and -2.24 ± 0.31. The matching figures for GGUAAGCAAUAUUACGGUGC: -1.14 ± 0.15 and -0.983 ± 0.26. As for CCCUAGCAAUAUUACGACAA, the “self-splicing fitness (ln)” value was -3.22 ± 0.35 (30 °C) and -2.1 ± 0.28 (37 °C).

With UCUAAGCAAUAUUACGACAC, the “self-splicing fitness (ln)” value reads like this: (30 °C) -3.7 ± 0.18; (37 °C) -2.82 ± 0.17.

On to AGAAAGCAAUAUUACGCAUG, for which the “self-splicing fitness (ln)” value was -1.66 ± 0.1 (30 °C) and -0.374 ± 0.1 (37 °C).

AAUUAGCAAUAUUACGCAUU: the “self-splicing fitness (ln)” value is, setting by setting: (30 °C) -2.52 ± 0.17; (37 °C) -2.69 ± 0.21. For UUUAAGCAAUAUUACGCCGG the same measures were -0.192 ± 0.089 and 0.194 ± 0.11.

On to GGCAAGCAAUAUUACGACAC, for which the “self-splicing fitness (ln)” value runs as follows: (30 °C) -0.649 ± 0.15; (37 °C) 0.129 ± 0.28. For CAACAGCAAUAUUACGGGUU the same measures were -3.14 ± 0.15 and -1.78 ± 0.12.

With UCAAAGCAAUAUUACGUAUA, the “self-splicing fitness (ln)” value (30 °C) was -3.27 ± 0.18 and the “self-splicing fitness (ln)” value (37 °C) was -2.17 ± 0.17.

In the case of UCCCAGCAAUAUUACGGGGG, the “self-splicing fitness (ln)” value (30 °C) is -4 ± 0.18 and the “self-splicing fitness (ln)” value (37 °C) was -3.66 ± 0.33. In the case of CUGAAGCAAUAUUACGGGGC, the “self-splicing fitness (ln)” value runs as follows: (30 °C) -3.24 ± 0.21; (37 °C) -2.56 ± 0.27. The matching figures for CCCAAGCAAUAUUACGAUGG: -2.89 ± 0.13 and -1.99 ± 0.13. For CUAAAGCAAUAUUACGGUUC the same measures were -4.09 ± 0.2 and -2.68 ± 0.18.

Consider GUUGAGCAAUAUUACGAGGU, for which the “self-splicing fitness (ln)” value (30 °C) is -3.2 ± 0.28. With CCGGAGCAAUAUUACGACUG, the “self-splicing fitness (ln)” value was -0.64 ± 0.14 (30 °C) and -0.428 ± 0.22 (37 °C). For GUCCAGCAAUAUUACGAGGG the same measures were -2.29 ± 0.24 and -1.78 ± 0.24. For GUUAAGCAAUAUUACGCAAA the same measures were -2.21 ± 0.27 and -2.21 ± 0.22. The matching figures for CUCAAGCAAUAUUACGCACA: -2.17 ± 0.34 and -2.48 ± 0.28. Take ACUGAGCAAUAUUACGAUGA: the “self-splicing fitness (ln)” value (30 °C) was -1.9 ± 0.091 and the “self-splicing fitness (ln)” value (37 °C) is -1.59 ± 0.098. For GCGUAGCAAUAUUACGUGGU the same measures were -3.53 ± 0.19 and -3.64 ± 0.22. The matching figures for UAAAAGCAAUAUUACGGUAC: -3.76 ± 0.16 and -1.42 ± 0.16. With UCACAGCAAUAUUACGAGUU, the “self-splicing fitness (ln)” value runs as follows: (30 °C) -3.54 ± 0.17; (37 °C) -2.08 ± 0.14.

As to AGACAGCAAUAUUACGUGGA, the “self-splicing fitness (ln)” value (30 °C) is -3.96 ± 0.24 and the “self-splicing fitness (ln)” value (37 °C) was -2.37 ± 0.2.

Take AGGUAGCAAUAUUACGAGAC: the “self-splicing fitness (ln)” value by setting is: (30 °C) -3.88 ± 0.039; (37 °C) -2.69 ± 0.044.

On to UCACAGCAAUAUUACGAUAG, for which the “self-splicing fitness (ln)” value reads like this: (30 °C) -2.75 ± 0.14; (37 °C) -1.22 ± 0.12. The matching figures for AUGUAGCAAUAUUACGCGUA: -1.66 ± 0.13 and -0.708 ± 0.14.

As to ACUAAGCAAUAUUACGCUUA, the “self-splicing fitness (ln)” value by setting is: (30 °C) -2.54 ± 0.25; (37 °C) -2.83 ± 0.32. The matching figures for GCAUAGCAAUAUUACGAUGG: -1.01 ± 0.09 and -0.54 ± 0.11.

Regarding GACGAGCAAUAUUACGGAAG, the “self-splicing fitness (ln)” value was -2.39 ± 0.23 (30 °C) and -2.5 ± 0.31 (37 °C). On to CCGGAGCAAUAUUACGUAUU, for which the “self-splicing fitness (ln)” value (37 °C) is -1.05 ± 0.21. As for AGCGAGCAAUAUUACGAACA, the “self-splicing fitness (ln)” value (30 °C) was -2.63 ± 0.23 and the “self-splicing fitness (ln)” value (37 °C) is -1.89 ± 0.2. For CAAUAGCAAUAUUACGGCAG, the “self-splicing fitness (ln)” value was -0.535 ± 0.078 (30 °C) and 0.191 ± 0.11 (37 °C). The matching figures for CCGCAGCAAUAUUACGCCUU: -3.2 ± 0.21 and -2.08 ± 0.16.

For GACGAGCAAUAUUACGUCGG, the “self-splicing fitness (ln)” value (37 °C) was -1.96 ± 0.34. Regarding UGUGAGCAAUAUUACGGUAU, the “self-splicing fitness (ln)” value (30 °C) was -3.87 ± 0.34. For AGCUAGCAAUAUUACGUGAA, the “self-splicing fitness (ln)” value was -1.58 ± 0.13 (30 °C) and -1.05 ± 0.15 (37 °C). For CCCUAGCAAUAUUACGGCGG, the “self-splicing fitness (ln)” value is -2.6 ± 0.14 (30 °C) and -2.42 ± 0.18 (37 °C).

In the case of AACUAGCAAUAUUACGGCUC, the “self-splicing fitness (ln)” value is -0.662 ± 0.1 (30 °C) and -0.155 ± 0.11 (37 °C). ACGUAGCAAUAUUACGGAGU: the “self-splicing fitness (ln)” value is, setting by setting: (30 °C) -3.1 ± 0.1; (37 °C) -1.18 ± 0.079. For AUGUAGCAAUAUUACGGGGA the same measures were -2.26 ± 0.21 and -2.48 ± 0.21. The matching figures for UACAAGCAAUAUUACGGAAU: -3.62 ± 0.24 and -2.44 ± 0.25. In the case of ACAGAGCAAUAUUACGUGCU, the “self-splicing fitness (ln)” value reads like this: (30 °C) -4.27 ± 0.37; (37 °C) -2.48 ± 0.41.

(Values after the supplement of paper PMC7877785.)
